According to patent US20220056137A1 (GIGAGEN, published 2022):
Where two headings read alike, the source gives them in different places.

How the values were obtained:
cyno PD-L1 = molecular target: T1, cyno PD-L1 (cyno); assay: BLI (Octet), antibody on AHC biosensor, cyno PD-L1 as analyte
T1 construct: Soluble analyte in BLI
Method: For BLI, antibodies were loaded onto an Anti-Human IgG Fc (AHC) biosensor using the Octet Red96 system (ForteBio). Loaded biosensors were dipped into antigen dilutions beginning at 300 nM, with 6 serial dilutions at 1:3. Kinetic analysis was performed using a 1:1 binding model and global fitting.

[1] = molecular target: PD-L1 expressed on CHO cells (human, UniProt Q9NZQ7 19-290); assay: cell-based or functional assay
rhPD-L1-Fc = molecular target: T2, rhPD-L1-Fc (human, UniProt Q9NZQ7 19-239, limits assumed); assay: competition ELISA: plate-bound rhPD-L1-Fc, antibody titrated, competitor rhCD80-His detected
T2 construct: Recombinant human PD-L1-Fc coated on ELISA plates; not shown: Fc part

[2] = molecular target: T3, human PD-L1 protein (soluble) (human, UniProt Q9NZQ7 19-239); assay: SPR, mAb captured on anti-human IgG Fc, PD-L1 as analyte;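 for koff: array SPR with mAb supernatants captured at several densities, PD-L1 injected for 5 min then 15 min dissociation, non-regenerative kinetic series, double-referenced against interspot surface and blank injection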;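 for kon: array SPR with mAb supernatants captured at several densities, PD-L1 injected for 5 min then 15 min dissociation, non-regenerative kinetic series, double-referenced against interspot surface and blank injection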
T3 construct: also called PD-L1 (R&D Systems); His-tagged PD-L1 protein
Method: (§1) The surface was then deactivated with 1 M ethanolamine pH 8.5 (Carterra Inc.). Running buffer used for the lawn immobilization was HBS-EPC (10 mM HEPES, 150 mM NaCl, 3 mM EDTA, 0.05% Tween 20, pH 7.4; Teknova).
(§2) The sensor chip was then transferred to a continuous flow microspotter (CFM; Carterra Inc.) for array capturing. The mAb supernatants were diluted 50-fold (3-10 mg/mL final concentration) into HBS-EPC with 1 mg/mL BSA. The samples were each captured twice with 15-minute and 4-minute capture steps on the first and second prints, respectively, to create multiple densities, using a 65 mL/min flow rate. The running buffer in the CFM was also HBS-EPC.
(§3) Next, the sensor chip was loaded onto an SPR reader (MX-96 system; Ibis Technologies) for the kinetic analysis. […] PD-L1 injections were 5 minutes with a 15-minute dissociation at 8 mL/second in a non-regenerative kinetic series. An injection of the goat anti-Human IgG Fc capture antibody at 75 mg/mL was injected at the end of the series to verify the capture level of each mAb. Binding data was double referenced by subtracting an interspot surface and a blank injection and analyzed for ka (on-rate), kd (off-rate), and KD (affinity) using the Kinetic Interaction Tool software (Carterra Inc.).

[3] = molecular target: T3, human PD-L1 protein (soluble); assay: as above; remark: listed apart in the source
Method: as §1, §2, §3

Chain of PD-L1 expressed on CHO cells (Q9NZQ7 19-290 limits assumed): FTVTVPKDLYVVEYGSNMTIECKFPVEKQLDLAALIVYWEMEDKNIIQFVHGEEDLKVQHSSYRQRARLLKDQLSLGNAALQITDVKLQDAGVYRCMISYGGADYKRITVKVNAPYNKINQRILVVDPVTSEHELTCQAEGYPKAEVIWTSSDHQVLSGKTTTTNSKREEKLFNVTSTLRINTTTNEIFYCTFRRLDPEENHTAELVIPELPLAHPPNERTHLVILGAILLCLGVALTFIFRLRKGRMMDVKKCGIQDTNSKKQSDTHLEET
T2 sequence (Q9NZQ7 19-239 limits assumed): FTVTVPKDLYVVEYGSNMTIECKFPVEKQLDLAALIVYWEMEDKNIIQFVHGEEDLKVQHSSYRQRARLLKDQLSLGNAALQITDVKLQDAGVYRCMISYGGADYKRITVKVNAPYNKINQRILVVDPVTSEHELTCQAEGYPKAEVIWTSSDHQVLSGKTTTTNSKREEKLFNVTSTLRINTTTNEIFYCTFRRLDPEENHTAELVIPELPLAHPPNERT
T3 sequence (Q9NZQ7 19-239 limits assumed): as above

| Binder | Kd (cyno PD-L1) | Promega assay antagonist (EC50, ug/mL) [1] | EC50 (rhPD-L1-Fc) | Kd [2] | koff [2] | kon [2] | Kd [3] |
| --- | --- | --- | --- | --- | --- | --- | --- |
| antibody A13 (antibody, V domains shown, Tested as full-length mAb made in CHO cells; also called L13H13) VH: QVQLQESGPGLVKPSETLSLTCTVSGGSISSYYWSWIRQPPGKGLEWIGYIHYSGSTKYNPSLKSRVTISLDTSKNQFSLKLSSVTAADTAVYYCARDRGIGAFDIWGQGTMVTVSS VL: EIVMTQSPATLSLSPGERATLSCRASQSVSSSYLSWYQQKPGQAPRLLIYGASTRATGIPARFSGSGSGTDFTLTISSLQPEDFAVYYCQQDYNLITFGQGTRLEIK | 101 nM | 1.12 µg/mL | 0.6 µg/mL | 126 nM | 0.039 s⁻¹ | 310000 M⁻¹ s⁻¹ | 124 nM |
| antibody A10 (antibody, V domains shown, Tested as full-length mAb made in CHO cells; also called L10H10) VH: QVQLVESGGGVVQPGRSLRLSCAASGFTFSSYGMHWVRQAPGKGLEWVAVIWYDGINKYYADSVKGRFTISRDNSKNTLYLQMNSLRAEDTAVYYCARDSTASPFDYWGQGTLVTVSS VL: EIVMTQSPATLSLSPGERATLSCRASQSVSSSYLSWYQQKPGQAPRLLIYGASTRATGIPARFSGSGSGTDFTLTISSLQPEDFAVYYCQQDYNLPHTFGQGTKLEIK | 27.4 nM | 0.27 µg/mL | 2.24 µg/mL | 40.9 nM | 0.018 s⁻¹ | 440000 M⁻¹ s⁻¹ | 42 nM |
| antibody A6 (antibody, V domains shown, Tested as full-length mAb made in CHO cells; also called L6H6) VH: QVQLVESGGGVVQPGRSLRLSCAASGFTFSSYGMHWVRQAPGKGLEWVAVIWFDGSNKYYADSVKGRFTISRDNSKNTLYLQMNSLRAEDTAVYYCARDKTVSPFDIWGQGTMVTVSS VL: EIVMTQSPATLSLSPGERATLSCRASQSVSSSYLSWYQQKPGQAPRLLIYGASTRATGIPARFSGSGSGTDFTLTISSLQPEDFAVYYCQQDYNLFTFGPGTKVDIK |  | 0.111 µg/mL | 2.62 µg/mL | 15.8 nM | 0.0049 s⁻¹ | 310000 M⁻¹ s⁻¹ | 16 nM |
| antibody A14 (antibody, V domains shown, Tested as full-length mAb made in CHO cells; also called L14H14) VH: QVQLVESGGGVVQPGRSLRLSCAASGFTFSSYGMHWVRQAPGKGLEWVAVIWYDGSVKYYADSVKGRFTISRDNSKNTLYLQMNSLRAEDTAVYYCARDRTGVPFDYWGQGTLVTVSS VL: EIVMTQSPATLSLSPGERATLSCRASQSVSSSYLSWYQQKPGQAPRLLIYGASTRATGIPARFSGSGSGTDFTLTISSLQPEDFAVYYCQQDYNLPHTFGQGTKLEIK | 57.7 nM | 1.23 µg/mL | 0.6 µg/mL | 146 nM | 0.038 s⁻¹ | 260000 M⁻¹ s⁻¹ | 148 nM |
| antibody A9 (antibody, V domains shown, Tested as full-length mAb made in CHO cells; also called L9H9) VH: QVQLVESGGGVVQPGRSLRLSCAASGFTFSSYGMHWVRQAPGKGLEWVAVIWFDGNNKYYADSVKGRFTISRDNSKNTLYLQMNSLRAEDTAVYYCARDVTTVPFDYWGQGTLVTVSS VL: EIVMTQSPATLSLSPGERATLSCRASQSVSSSYLSWYQQKPGQAPRLLMYGASTRATGIPARFSGSGSGTDFTLTISSLQPEDFAVYYCQQDYNLPYTFGQGTKLEIK | 20.9 nM | 0.28 µg/mL | 1.49 µg/mL | 26.2 nM | 0.0055 s⁻¹ | 210000 M⁻¹ s⁻¹ | 26 nM |
| antibody A18 (antibody, V domains shown, also called L18H18) VH: QVQLVESGGGVVQPGRSLRLSCAASGFTFSSFALHWVRQAPGKGLEWVAVLWYDGISKYYADSVKGRFTISRDNSKNTLYLQMNSLRAEDTAVYYCARDVVGVHDAFDIWGQGTMVTVSS VL: not shown |  | 0.088 µg/mL |  | 438 nM | 0.035 s⁻¹ | 80000 M⁻¹ s⁻¹ | 442 nM |
| antibody A11 (antibody, V domains shown, Tested as full-length mAb made in CHO cells; also called L11H11) VH: QVQLVESGGGVVQPGRSLRLSCAASGFTFSSYGIHWVRQAPGKGLEWVAVIWSDGSNKFYADSVKGRFTISRDNSKNTLFLQMSSLRAEDTAVYYCARDIAAAIDYWGQGTLVTVSS VL: AIQMTQSPSSLSASVGDRVTITCRASQGIRNDLGWYQQKPGKAPKLLIYAASSLQSGVPSRFSGSGSGTDFTLTISSLQPEDFATYYCLQDYNYPYTFGQGTKLEIK | 17.7 nM | 0.158 µg/mL | 0.56 µg/mL | 64.7 nM | 0.011 s⁻¹ | 170000 M⁻¹ s⁻¹ | 66 nM |
| antibody A15 (antibody, V domains shown, Tested as full-length mAb made in CHO cells; also called L15H15) VH: QLQLQESGPGLVKPSETLSLTCTVSGGSFNRSNYYWGWIRQPPGKGLEWIGSIYYSGSTYYNPSLKSRLTISADTSKTQFSLKRNSVTAADTAVYYCAREDIVVVPAAQPPHFYFGMDVWGQGTTVTVSS VL: DIQMTQSPSSLSASVGDRVTITCRASQGIRNDLGWYQQKPGKAPKRLIYAASSLQSGVPSRFSGSGSGTEFTLTISSLQPEDFATYYCLQHDSYPLTFGGGTKVEIK |  | 0.55 µg/mL |  | 227 nM | 0.022 s⁻¹ | 97000 M⁻¹ s⁻¹ | 227 nM |
| antibody A12 (antibody, V domains shown, Tested as full-length mAb made in CHO cells; also called L12H12) VH: QVQLVESGGGVVQPGRSLRLSCAASGFTFSSYGMHWVRQAPGKGLEWVAVIWYDGSNKSYADSVKGRFTFSRDNSKNTLYLQMNSLRAEDTAVYYCARDMDYFGLDVWGQGTTVTVSS VL: DIQMTQSPSSLSASVGDRVTITCRASQGIRNDLGWYQQKPGKAPKRLIYAASSLQSGVPSRFSGSGSGTEFTLTISSLQPEDFATYYCLQHNSYPRTFGQGTKVEIK | 75.9 nM | 3.13 µg/mL |  | 81.3 nM | 0.013 s⁻¹ | 160000 M⁻¹ s⁻¹ | 80 nM |
| antibody A17 (antibody, V domains shown, Tested as full-length mAb made in CHO cells; also called L17H17) VH: QVQLQESGPGLVKPSETLSLTCTVSGGSISGYSWSWIRQPPGKGLEWIGYIYYSGSTNNNPSLKSRVTISVDTSKNQFSLKLSSVTAADTAVYFCARDDGIAVAGYYFYYGLDVWGQGTTVTVSS VL: DIQMTQSPSSLSASVGDRVTITCRASQGIRNDLGWYQQKPGKAPKRLIYAASSLQSGVPSRFSGSGSGTEFTLTISSLQPEDFATYYCLQHNTYPWTFGQGTKVEIK | 762 nM | 2.25 µg/mL |  | 335 nM | 0.077 s⁻¹ | 230000 M⁻¹ s⁻¹ | 335 nM |
| antibody A16 (antibody, V domains shown, Tested as full-length mAb made in CHO cells; also called L16H16) VH: QVQLVESGGGVVQPGRSLRLSCAASGFTFSSYGMHWVRQAPGKGLEWVAVIWYDGSNKYYADSVKGRFTISRDNSNDTLFLQMNSLRAEDTAVYYCARDFDWFGMDVWGQGTTVTVSS VL: DIQMTQSPSSLSASVGDRVTITCRASQGIRNDLGWYQQKPGKAPKRLIYAASSLQSGVPSRFSGSGSGTEFTLTISSLQPEDFATYYCLQHNSYPRTFGQGTKVEIK | 532 nM |  | 0.64 µg/mL | 250 nM | 0.035 s⁻¹ | 140000 M⁻¹ s⁻¹ | 246 nM |
| antibody A20 (antibody, V domains shown, Tested as full-length mAb made in CHO cells; also called L20H20) VH: QVQLQESGPGLVKPSETLSLTCTVSGGSISSYYWSWIRQPPGKGLEWIGYIYYSGSTNYNPSLKSRVTISVDTSKNQFSLKLSSVTAADTAVYYCARDDRIAVGPYYYYYGMDVWGQGTTVTVSS VL: DIQMTQSPSSLSASVGDRVTITCRASQGIRNDLGWYQQKPGKAPKRLIYAASSLQSGVPSRFSGSGSGTEFTLTISSLQPEDFATYYCLQHNSYPYTFGQGTKLEIK |  |  |  | 688 nM | 0.11 s⁻¹ | 160000 M⁻¹ s⁻¹ | 675 nM |
| antibody A23 (antibody, V domains shown) VH: QVQLVQSGAEVKKPGASVKVSCKASGYTFTNYGISWVRQAPGQGLEWMGWISAYNGNTNYEQKVQGRVTMTTDTSTSTAYMELRSLRSDDTAVYYCARSLTGLFDYWGQGTLVTVSS VL: DIQMTQSPSSLSASVGDRVTITCRASQGIRNDLGWYQQKPGKAPKRLIYAASSLQSGVPSRFSGSGSGTEFTLTISSLQPEDFATYYCLQHNSYPMFTFGQGTKLEIK |  | 9.8 µg/mL |  |  |  |  |  |
| antibody A19 (antibody, V domains shown, Tested as full-length mAb made in CHO cells; also called L19H19) VH: QVQLVESGGGVVQPGRSLRLSCVASGFTFSSYGMHWVRQAPGKGLEWVAVIWYDGSNKFYIDSVKGRFTISRDNSKNTLYLQMNSLRAEDTAVYYCARGGAVAGTSWYYYYGMDVWGQGTTVTVSS VL: DIQLTQSPSFLSASVGDRVTITCRASQGISSYLAWYQQKPGKAPKLLIYDASTLQSGVPSRFSGSGSGTEFTLTISSLQPEDFAIYYCQQLNTYPLTFGGGTKVEIK |  |  |  | 565 nM | 0.0035 s⁻¹ | 6200 M⁻¹ s⁻¹ | 567 nM |
| antibody A21 (antibody, V domains shown, Tested as full-length mAb made in CHO cells; also called L21H21) VH: QVQLVESGGGVVQPGRSLRLSCAASGFTFSSYGMHWVRQAPGKGLEWVAVIWYDGSNKFYEDSVKGRFTISRDNSKNTLYLQMNSLRAEDTAVYYCARGGVNWNDVGYYYYGMDVWGQGTTVTVSS VL: DIQLTQSPPFLSASVGDRVTITCRASQGISSYLAWYQQKPGKAPKLLIYAASTLQSGVPSRFSGSGSGTEFTLTISSLQPEDFATYYCQQLNSYPFTFGQGTKLEIK |  |  |  | 867 nM | 0.013 s⁻¹ | 15000 M⁻¹ s⁻¹ | 860 nM |
